Source: article PMC7300195 (Frontiers in Immunology, 2020)

Assays:
Assay in all cases: BLI
Details in all cases: both partners purified
[1] = target: hexameric NiV G: two G ectodomain headgroups linked by a foldon trimerization domain via short glycine linkers (Nipah virus, Malaysia (AAK50545.1), UniProt Q9IH62)
[2] = target: T1, NiV G ferritin 24-mer nanoparticle: NiV G ectodomain residues 172-602 linked to the C-terminus of ferritin … (Nipah virus, Malaysia (AAK50545.1), UniProt Q9IH62)
T1 construct: copies: 24

[3] = target: NiV G trimer: NiV G head domain residues 172-602 coupled to an N-terminal foldon domain (Nipah virus, Malaysia (AAK50545.1), UniProt Q9IH62)

Measured: binding result

B1: m102.4 monoclonal antibody (HeV G-specific antibody), human IgG1/kappa (antibody, V domains shown)
VH: EVQVIQSGADVKKPGSSVKVSCKSSGGTFSKYAINWVRQAPGQGLEWMGGIIPILGIANYAQKFQGRVTITTDESTSTAYMELSSLRSEDTAVYYCARGWGREQLAPHPSQYYYYYYGMDVWGQGTTVTVSS
VL: EIVMTQSPGTLSLAPGERATLSCWASQSVRNNYLAWYQQKPGQAPRLVIYNGSTRATGIPDRFSGSGSGTDFTLTISRLDPEDFAVYYCQQYGNSRRVTFGGGTKVEIK
binds: [1] | [2] | [3]
